Data taken from the supplement of paper PMC12764529.
± gives the half width of the 95% confidence interval.

Assays:
[1] = folding stability dG unfold from trypsin proteolysis; higher = more stable
How it was run: (§1)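 Bayesian fitting of sequencing counts gave K50 for each design. Unfolding free energy followed by setting this against a sequence-predicted unfolded-state K50 and a shared folded-state K50, either per protease or with trypsin and chymotrypsin combined. The designs, under 80 residues and lacking cysteine, were digested in a PA-tagged cDNA display format at 11 threefold-diluted protease concentrations and without protease, and only those with AlphaFold2 dimer inter-PAE above 15 were kept.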

[2] = folding stability dG unfold from chymotrypsin proteolysis; higher = more stable
How it was run: as §1

[3] = folding stability dG unfold (combined trypsin and chymotrypsin); higher = more stable
How it was run: as §1

| Sequence | folding stability dG unfold [1] | folding stability dG unfold [2] | folding stability dG unfold [3] |
| --- | --- | --- | --- |
| SAGGSAGGSAGGKGKKVTIEIHFFFKSPQEMKHWANTLAKELPGLDVEIKVEWIPLEDMKSAGGSAGGSAGG [r7_465_TrROS] | 2.06 ± 0.14 kcal/mol | 3.26 ± 0.14 kcal/mol | 2.75 ± 0.29 kcal/mol |
| SAGGSAGGSAGGSPVEIKLKELPDGVLVAEATFTLENGETVKIKAVYDKKTKKLHFELVSAGGSAGGSAGGS [r4_13_TrROS_Hall] | 2.15 ± 0.086 kcal/mol | 3.5 ± 0.085 kcal/mol | 3.09 ± 0.098 kcal/mol |
| SAGGSAGGSAGSKKAVIGGDGATVTYYPPLGYALVTFPDGTAALVDLKTGEIVEIAKTNDSAGGSAGGSAGG [r11_149_TrMRF] | 1.04 ± 0.059 kcal/mol | 2.29 ± 0.037 kcal/mol | 2 ± 0.11 kcal/mol |
| SAGGSAGGSAGGEVVVVPLPDGSYVVALPDGTVVVYNPETGRWEERRSEDVVIAPGRPDESAGGSAGGSAGG [r7_656_TrMRF] | 2.09 ± 0.061 kcal/mol | 2.51 ± 0.031 kcal/mol | 2.4 ± 0.03 kcal/mol |
| SAGGSAGGSKVIPITFPKSLSLEQIEDFVRKIAAESGAKVKSVKIVDVDPENNRVTVLVEVEGSAGGSAGGS [r12_168_TrMRF] | 3.14 ± 0.042 kcal/mol | 3.34 ± 0.038 kcal/mol | 3.31 ± 0.079 kcal/mol |
| SAGGSAGGEKEYIIKIKLEMPNGREMKHWFPFKTVEQIKDQLRKLPDPNYKIDDVEIMPADELKSAGGSAGG [r6_297_TrROS] | -0.237 ± 0.14 kcal/mol | 0.594 ± 0.15 kcal/mol | 0.263 ± 0.12 kcal/mol |
| SAGGKKVEILEVSVKPVTLGGKKKYYLNVKVKTPDGKVVNVTMPLEVVKSLGFSIEEFAKAVAKTLLSAGGS [r16_625_TrMRF] | 2.96 ± 0.071 kcal/mol | 3.89 ± 0.045 kcal/mol | 3.61 ± 0.055 kcal/mol |
| SAGGSAGGYIVKIKMPKFPHVFIFPPEMPPKQFADEIRRRFGNPDAPITDITIQPVTPEELKKLSAGGSAGG [r6_122_TrROS] | 0.787 ± 0.059 kcal/mol | 1.4 ± 0.12 kcal/mol | 1.16 ± 0.12 kcal/mol |
| SAGGMSPVKVAEKTYVIPLPSSMTKEEAKEEVKKELVPKGIDKIDIPISEDPNKGTLIIKVTVYKYPNESAG [r5_924_JUSTAS] | 0.297 ± 0.2 kcal/mol | 0.757 ± 0.27 kcal/mol | 0.49 ± 0.35 kcal/mol |
| SAGGMKKIKIVVKVPPNVTAEELAKALEDELKKKGYEVKVTVKVVKKPDGSLYVVIEVEIRPKNEKPSAGGS [r16_128_TrROS_Hall] | 3.04 ± 0.13 kcal/mol | 3.67 ± 0.075 kcal/mol | 3.52 ± 0.099 kcal/mol |
| SAGGSAGGSAGGKVHPDQPVKLRLTFTVSGVYYDENKPRVETKPVTVEFTALAPDEDALSAGGSAGGSAGGS [r10_745_TrMRF] | 0.0543 ± 0.12 kcal/mol | 0.208 ± 0.17 kcal/mol | 0.185 ± 0.07 kcal/mol |
| SAGGSAGGSSNGITLKKPGGIEIKLPKPPSVKPVTVTTTFVFTTPDGKLVFVPKTTTLPPSLLSAGGSAGGS [r12_1027_JUSTAS] | 1.59 ± 0.15 kcal/mol | 2.25 ± 0.2 kcal/mol | 1.83 ± 0.29 kcal/mol |
| SASEDGYVVVEITIPIEIYMPMYKYSPDGKWKWEPHQMEIKLEITVQVKKDPEAADRAREFADRILDYISAG [r14_830_TrROS] | 2.7 ± 0.13 kcal/mol | 3.59 ± 0.21 kcal/mol | 3.22 ± 0.23 kcal/mol |
| SAGGSAGGSAGGSSMTIEEQKEKIKKEVPLGKSVTIEYPDKTVTLTIDPKSGKITVTISSAGGSAGGSAGGS [r4_150_JUSTAS] | 0.61 ± 0.079 kcal/mol | 1.44 ± 0.021 kcal/mol | 1.17 ± 0.12 kcal/mol |
| EITIRNPNGMEVKKVEFDPPDSTIKFEFRMPDYYVKIEFQIYPVGGGWVIPIKIEIVPIPPTPAQRKKMQES [r1_154_TrROS] | 1.44 ± 0.13 kcal/mol | 3.4 ± 0.17 kcal/mol | 2.85 ± 0.25 kcal/mol |
| SAGGSAGGSAGGMFLIKLPNGKVLLFESEEEAKAALEELTGKPVDLENLEIVPLPEEELSAGGSAGGSAGGS [r10_62_TrROS_Hall] | 3.65 ± 0.14 kcal/mol | 3.14 ± 0.045 kcal/mol | 3.3 ± 0.11 kcal/mol |

| Sequence | folding stability dG unfold [1] | folding stability dG unfold [2] | folding stability dG unfold [3] |
| --- | --- | --- | --- |
| SAGGSAGGSGWYFHFEVSIWVMEFKYPGPDGKTMTMWFIMIEIKIEIVPPPPITPEDAAKMNGSAGGSAGGS [r12_1060_TrROS] | 2.66 ± 0.06 kcal/mol | 4.24 ± 0.087 kcal/mol | 3.76 ± 0.16 kcal/mol |
| SAGMTAEELAAEALAKLPPGAKEVTVEIEVNGELVTVTITVEAAPPPPPPEETITTVDEDTGEVREETLSAG [r5_236_TrROS_Hall] | 1.44 ± 0.058 kcal/mol | 0.119 ± 0.034 kcal/mol | 0.854 ± 0.068 kcal/mol |
| SAGGATVTVTEYPLPTGTLYRVTVTVGSKTTTFTVPPGVSLEEIKEIVEKEVGVDLTTVTTTTVSTAAASAG [r5_181_JUSTAS] | 3.06 ± 0.14 kcal/mol | 3.83 ± 0.062 kcal/mol | 3.56 ± 0.14 kcal/mol |
| SAGGEPLFGGSFSAEPYRTADGRLVYIVPEVTLPNGRKARAAVIYDPSTGRPIVVLYLGDKPIVLDASAGGS [r16_766_TrMRF] | 1.889 ± 0.017 kcal/mol | 2.41 ± 0.039 kcal/mol | 2.24 ± 0.026 kcal/mol |
| SKTVIIEVPAKDLDKIKELIKKLKPGQKVKIVFKDANGKLITVTIEVKPAPPPKISLEELSEEQRKALEKSA [r9_1103_TrROS_Hall] | 1.53 ± 0.081 kcal/mol | 1.89 ± 0.23 kcal/mol | 1.79 ± 0.28 kcal/mol |
| SAGGSKIEVKIEEENGTLTITVTVYDENGEQIAEITVTITLPAPKPPEKELVKAESPEEKEEALKQSAGGSA [r2_332_TrROS_Hall] | 2.25 ± 0.12 kcal/mol | 1.8 ± 0.12 kcal/mol | 1.65 ± 0.35 kcal/mol |
| SAGEIVIPIPFDWEQAPRMAKHLLRRFQQEGKKIRIWVPDAGAVEAIKDALPPNFPIEVEPLKPGEPIPSAG [r5_911_TrROS] | 0.299 ± 0.34 kcal/mol | 1.27 ± 0.27 kcal/mol | 0.909 ± 0.14 kcal/mol |
| SNPDDQKKAKPIEIEIEIDFKPERERDPDGKERPRFEFDIEIKIPPGAPLDMITIYIRFDDWPFMITIPASA [r9_488_TrROS] | 1.8 ± 0.075 kcal/mol | 3.42 ± 0.15 kcal/mol | 2.95 ± 0.28 kcal/mol |
| SAGMKVLKFKSKEELLEAIDKSPEPVLVINKKTGKKEVLSKEELKKKLKPGDEIEIVLLKDLSPEELKKSAG [r5_677_TrROS_Hall] | 1.05 ± 0.097 kcal/mol | 1.78 ± 0.14 kcal/mol | 1.4 ± 0.14 kcal/mol |
| SKKIVINLENIPEENREKVLENVLKAIKEAKEKNPEKKVKITILVSPEQKEEVKKLKEELEKAGLEVEEISA [r9_1202_TrROS_Hall] | 3.81 ± 0.31 kcal/mol | 2.31 ± 0.089 kcal/mol | 2.73 ± 0.36 kcal/mol |
| SAGGMPKDAPTTDLTITEIVTEPDPNSDTYIARVTTRLPDGTEIVYTLPIPADTTEEEVVERAKELLSSAGG [r13_578_JUSTAS] | 1.78 ± 0.035 kcal/mol | 2.307 ± 0.018 kcal/mol | 2.12 ± 0.077 kcal/mol |
| SAGGSAGGSAGGGMTTTTETTTTTFPTNNLTTTTTTTTTLETSTGTTLSSTSTTTVTASSAGGSAGGSAGGS [r10_469_JUSTAS] | 1.96 ± 0.18 kcal/mol | 0.234 ± 0.12 kcal/mol | 1.2 ± 0.072 kcal/mol |
| SAGMVIKIKASEELRELLKKLGLSEEEVKKLKIKLKVNGKEVEVEVEVDKETGMIYVRFKDTGKTFKLPSAG [r5_545_TrROS_Hall] | 1.61 ± 0.042 kcal/mol | 1.32 ± 0.15 kcal/mol | 1.53 ± 0.13 kcal/mol |
| SAGGPENARPVTFTVTLPDGDVVPITVTEHPDGTVTVTVTVLRFDGAEPVPATATITVPAEVVRRLFSAGGS [r16_470_TrMRF] | 2.15 ± 0.035 kcal/mol | 2.636 ± 0.023 kcal/mol | 2.48 ± 0.034 kcal/mol |
| SAGKPVLLKIEIEVKVNGKTVKLELEILVEPGETIEELLAALPGVEEVKIKIEPISLEELEELKKKKPSAGG [r19_339_TrROS_Hall] | 0.867 ± 0.23 kcal/mol | 1.88 ± 0.059 kcal/mol | 1.53 ± 0.3 kcal/mol |
